The source of these data is article PMC11326354, “Mechanism of human α3β GlyR modulation in inflammatory pain and 2, 6-DTBP interaction” (Research Square, 2024).

For data set [1], the target named is human glycine receptor β subunit, βem construct (human). In words: cryo-EM structure; heteromeric GlyR in 0.06% digitonin, 20 mM Tris-HCl pH 8.0, 200 mM NaCl, 2 mM glycine.
Data set [2] deals with the molecule itself. Described as above.
For data set [3], the target named is human glycine receptor β subunit, βem construct (human). Briefly: cryo-EM structure; heteromeric GlyR reconstituted in saposin nanodisc with brain polar lipids extract, 20 mM Tris-HCl pH 8.0, 200 mM NaCl, 2 mM glycine.
Data set [4] deals with the molecule itself. Briefly: FRET or BRET; TIRF-based single-molecule FRET between LD555 and LD655 at C358 of different α3 subunits; labelled GlyR (0.7 nM) held on NeutrAvidin/biotin anti-GFP antibody-coated glass by the GFP in β; 50 mM HEPES-NaOH pH 7.4, 150 mM NaCl, 10 mM MgCl2, 22 °C; apo, with 2 mM glycine, with 2 mM glycine and 500 μM 2, 6-DTBP. In general terms: In BRET a luciferase serves as donor, and the signal depends on an acceptor being close.

Data set [5] addresses human glycine receptor β subunit, βem construct (human). In words: cryo-EM structure; heteromeric GlyR in 0.06% digitonin, 2 mM glycine, with 500 μM 2, 6-DTBP throughout the purification and another 500 μM added before grid freezing.

A word on the stoichiometry N: it is the number of molecules, sites or subunits per partner or assembly.

Sequence of human glycine receptor β subunit, βem construct (human) (P48167 whole entry): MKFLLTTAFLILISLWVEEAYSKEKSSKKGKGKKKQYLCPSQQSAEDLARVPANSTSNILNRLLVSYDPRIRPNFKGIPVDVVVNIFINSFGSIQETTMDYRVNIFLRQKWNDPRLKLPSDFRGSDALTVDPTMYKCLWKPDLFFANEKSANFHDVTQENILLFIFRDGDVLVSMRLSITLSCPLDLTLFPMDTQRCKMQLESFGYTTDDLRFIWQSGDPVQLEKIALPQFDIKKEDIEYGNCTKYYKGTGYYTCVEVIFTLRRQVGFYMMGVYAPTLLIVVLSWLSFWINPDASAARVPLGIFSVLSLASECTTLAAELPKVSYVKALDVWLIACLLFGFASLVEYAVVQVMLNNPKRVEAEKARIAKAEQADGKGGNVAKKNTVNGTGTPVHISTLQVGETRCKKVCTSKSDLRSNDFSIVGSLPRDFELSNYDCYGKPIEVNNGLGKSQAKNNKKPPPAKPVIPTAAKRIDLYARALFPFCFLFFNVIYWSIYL

B1: human glycine receptor α3 subunit, α3em construct (receptor, UniProt O75311-1 34-464, looked up)
chain: ARSRSAPMSPSDFLDKLMGRTSGYDARIRPNFKGPPVNVTCNIFINSFGSIAETTMDYRVNIFLRQKWNDPRLAYSEYPDDSLDLDPSMLDSIWKPDLFFANEKGANFHEVTTDNKLLRIFKNGNVLYSIRLTLTLSCPMDLKNFPMDVQTCIMQLESFGYTMNDLIFEWQDEAPVQVAEGLTLPQFLLKEEKDLRYCTKHYNTGKFTCIEVRFHLERQMGYYLIQMYIPSLLIVILSWVSFWINMDAAPARVALGITTVLTMTTQSSGSRASLPKVSYVKAIDIWMAVCLLFVFSALLEYAAVNFVSRQHKELLRFRRKRKNKTEAFDMDDEVRESRFSFTAYGMGPCLQAKDGMTPKGPNHPVQVMPKSPDEMRKVFIDRAKKIDTISRACFPLAFLIFNIFYWVIYKILRHEDIHQQQD
notes: glycine receptor α3 subunit, human, NCBI NP_006520.2; 9 residues of the M3/M4 loop (A329-S337) deleted; the model description counts 422 aa in all, from A1 to D431; Four copies of this subunit stand with one β subunit in the pentamer; also called GlyR α3
As to B1, the stoichiometry N in data set [1] and in data set [3] was 4 α3 per β throughout. For the same molecule, in data set [2], the binding result was “binds”.

B2: human glycine receptor α3 subunit, α3S346E_(FRET) construct (receptor, UniProt O75311-1 34-464, looked up)
chain: ARSRSAPMSPSDFLDKLMGRTSGYDARIRPNFKGPPVNVTVNIFINSFGSIAETTMDYRVNIFLRQKWNDPRLAYSEYPDDSLDLDPSMLDSIWKPDLFFANEKGANFHEVTTDNKLLRIFKNGNVLYSIRLTLTLSCPMDLKNFPMDVQTCIMQLESFGYTMNDLIFEWQDEAPVQVAEGLTLPQFLLKEEKDLRYCTKHYNTGKFTCIEVRFHLERQMGYYLIQMYIPSLLIVILSWVSFWINMDAAPARVALGITTVLTMTTQSSGSRASLPKVSYVKAIDIWMAVCLLFVFSALLEYAAVNFVSRQHKELLRFRRKRKNKTEAFDMDDEVREERFSFTAYGMGPCLQAKDGMTPKGPNHPVQVMPKSPDEMRKVFIDRAKKIDTISRACFPLAFLIFNIFYWVIYKILRHEDIHQQQD
modifications: cysteine-reactive dye (LD555-MAL or LD655-MAL) at C358
notes: glycine receptor α3 subunit, human, NCBI NP_006520.2; α3S346Eem (A329-S337 deleted, S346E) with C41V and an A1 tag inserted between S380 and P381; Stood in the smFRET assay as part of the α3_(FRET)S346Eβ_(FRET) pentamer, which was held on the glass by the GFP in β_(FRET) (βem with C115S); also called α3_(FRET)S346E
For B2, in data set [4], the binding result is recorded as “binds”.

B3: human glycine receptor α3 subunit, α3_(FRET) construct (receptor, UniProt O75311-1 34-464, looked up)
chain: ARSRSAPMSPSDFLDKLMGRTSGYDARIRPNFKGPPVNVTVNIFINSFGSIAETTMDYRVNIFLRQKWNDPRLAYSEYPDDSLDLDPSMLDSIWKPDLFFANEKGANFHEVTTDNKLLRIFKNGNVLYSIRLTLTLSCPMDLKNFPMDVQTCIMQLESFGYTMNDLIFEWQDEAPVQVAEGLTLPQFLLKEEKDLRYCTKHYNTGKFTCIEVRFHLERQMGYYLIQMYIPSLLIVILSWVSFWINMDAAPARVALGITTVLTMTTQSSGSRASLPKVSYVKAIDIWMAVCLLFVFSALLEYAAVNFVSRQHKELLRFRRKRKNKTEAFDMDDEVRESRFSFTAYGMGPCLQAKDGMTPKGPNHPVQVMPKSPDEMRKVFIDRAKKIDTISRACFPLAFLIFNIFYWVIYKILRHEDIHQQQD
modifications: cysteine-reactive dye (LD555-MAL or LD655-MAL) at C358
notes: glycine receptor α3 subunit, human, NCBI NP_006520.2; α3em (A329-S337 deleted) with C41V and an A1 tag inserted between S380 and P381; Stood in the smFRET assay as part of the α3_(FRET)β_(FRET) pentamer, which was held on the glass by the GFP in β_(FRET) (βem with C115S); also called α_(FRET)
Turning to B3, in data set [4], the binding result is listed as “binds”.

B4: human glycine receptor α3 subunit, α3S346Eem construct (phosphorylation mimic) (receptor, UniProt O75311-1 34-464, looked up)
chain: ARSRSAPMSPSDFLDKLMGRTSGYDARIRPNFKGPPVNVTCNIFINSFGSIAETTMDYRVNIFLRQKWNDPRLAYSEYPDDSLDLDPSMLDSIWKPDLFFANEKGANFHEVTTDNKLLRIFKNGNVLYSIRLTLTLSCPMDLKNFPMDVQTCIMQLESFGYTMNDLIFEWQDEAPVQVAEGLTLPQFLLKEEKDLRYCTKHYNTGKFTCIEVRFHLERQMGYYLIQMYIPSLLIVILSWVSFWINMDAAPARVALGITTVLTMTTQSSGSRASLPKVSYVKAIDIWMAVCLLFVFSALLEYAAVNFVSRQHKELLRFRRKRKNKTEAFDMDDEVREERFSFTAYGMGPCLQAKDGMTPKGPNHPVQVMPKSPDEMRKVFIDRAKKIDTISRACFPLAFLIFNIFYWVIYKILRHEDIHQQQD
notes: glycine receptor α3 subunit, human, NCBI NP_006520.2; α3em (A329-S337 deleted) with S346E; the model description counts 422 aa in all, from A1 to D431; Four copies of this subunit stand with one β subunit in the pentamer; also called α3emS346E
B4: the stoichiometry N in data set [1] and in data set [5] was 4 α3 per β each time. Further, the binding result in data set [2] is “binds”.
